Results published in patent publication EP4803550A1 (Yantai Patronus Biotech Co., Ltd., dated 2026).

Target: T1, NPM-4C (binding peptide 2-NPM fusion protein)
T1 construct: Self-assembling nanoparticle protein expressed in E. coli; also called particle protein component; VLP carrier NPM-4C
Assay: covalent binding reaction (4T/4C) with NPM-4C at 22 °C for 24 h, SEC purification, SDS-PAGE

B1: RD012-1 (fHBP V3 domain 1-fHBP V1 domain 2-(G)-fHBP V1 domain 1-fHBP V2 domain 2-(GSG)2-4T-His) (other)
chain: SSGSGSGGGGVAADIGTGLADALTAPLDHKDKGLKSLTLEDSISQNGTLTLSAQGAEKTFKVGDKDNSLNTGKLKNDKISRFDFVQKIEVDGQTITLASGEFQIYKQDHSAVVALQIEKINNPDKIDSLINQRSFLVSGLGGEHTSFDKLPKDVMATYRGTAFGSDDAGGKLTYTIDFAAKQGHGKIEHLKSPELNVDLAVAYIKPDEKHHAVISGSVLYNQDEKGSYSLGIFGEKAQEVAGSAEVETANGIHHIGLAAKQGSSGGGGSGGGGVTADIGTGLADALTAPLDHKDKGLKSLTLEDSISQNGTLTLSAQGAEKTYGNGDSLNTGKLKNDKVSRFDFIRQIEVDGQLITLESGEFQVYKQSHSALTALQTEQEQDPEHSEKMVAKRRFRIGDIAGEHTAFNQLPDGKAEYHGKAFSSDDAGGKLTYTIDFAAKQGHGKIEHLKTPEQNVELAAAELKADEKSHAVILGDTRYGSEEKGTYHLALFGDRAQEIAGSATVKIGEKVHEIGIAGKQGSGGSGAHIVMVDAYKPTKHHHHHH
notes: Expressed in E. coli BL21(DE3), purified by His-trap and SEC; also called RD012-1 fusion protein; MenB antigen
B1: binds.

B2: RD012-2 (fHBP V3 domain 1-fHBP V1 domain 2-fHBP V1 domain 1T1-fHBP V2 domain 2-(GSG)2-4T-His) (other)
chain: SSGSGSGGGGVAADIGTGLADALTAPLDHKDKGLKSLTLEDSISQNGTLTLSAQGAEKTFKVGDKDNSLNTGKLKNDKISRFDFVQKIEVDGQTITLASGEFQIYKQDHSAVVALQIEKINNPDKIDSLINQRSFLVSGLGGEHTSFDKLPKDVMATYRGTAFGSDDAGGKLTYTIDFAAKQGHGKIEHLKSPELNVDLAVAYIKPDEKHHAVISGSVLYNQDEKGSYSLGIFGEKAQEVAGSAEVETANGIHHIGLAAKQGSGGGGVTADIGTGLADALTAPLDHKDKGLKSLTLEDSISQNGTLTLSAQGAEKTYGNGDSLNTGKLKNDKVSRFDFIRQIEVDGQLITLESGEFQVYKQSHSALTALQTEQEQDPEHSEKMVAKRRFRIGDIAGEHTAFNQLPDGKAEYHGKAFSSDDAGGKLTYTIDFAAKQGHGKIEHLKTPEQNVELAAAELKADEKSHAVILGDTRYGSEEKGTYHLALFGDRAQEIAGSATVKIGEKVHEIGIAGKQGSGGSGAHIVMVDAYKPTKHHHHHH
notes: Expressed in E. coli BL21(DE3), purified by His-trap and SEC; also called RD012-2 fusion protein; MenB antigen
B2: binds.
